For one substance, stoichiometry N results are on record in paper doi:10.1101/2020.10.28.357137.

The target in this experiment is SARS-CoV-2 Spike S2 protein fused to the pilot peptide CilPP, on S-EVs (SARS-CoV-2). The experiment can be described thus: non-reducing SDS-PAGE and Western blot. In general terms: Immunoblotting shows a protein as a band on a membrane.

What is called stoichiometry N is a count of units in the complex or per binding partner. Take “SARS-CoV-2 Spike S2 protein fused to the pilot peptide CilPP, on S-EVs (domain or fragment)”: the stoichiometry N is 3.
